Reference: patent US10538591B2, “Anti-fibulin-3 antibodies and uses thereof” (THE BRIGHAM AND WOMEN'S HOSPITAL, INC., priority 2014, dated 2020)
Entries after “also recorded” stand apart in the source; their conditions may differ.

Columns and labels:
[1] = system: GBM34 glioblastoma stem cells; test: Intravenous injection in subcutaneous GBM34 xenografts, growth and overall survival; type: in vivo, Athymic mice
Experimental: Athymic mice received SQ bilateral implants of GBM34 glioblastoma stem cells (1×10^6 cells/50 μl). Tumors were allowed to grow until they reached a volume of 100 mm^3. Animals (N=5/group) were then injected with mAb428.2 (30 mg/kg) or non-immune mouse IgG1 every day, for a total of 8 days (total: 8 injections). Mice were monitored for tumor growth and sacrificed when any of their tumors reached a length >=20 mm. Long-term survivors (>40 days) in which length was not increasing above 20 mm were euthanized when tumors reached width >=15 mm or presented ulcerations. […] Curves for overall survival were compared by long-rank test

[2] = target: T1, fibulin-3 in human primary glioblastoma (Homo sapiens, UniProt Q12805); test: Immunohistochemistry of human primary glioblastoma sections; conditions: anti-Fib3/911 10 μg/ml, mAb428.3C11 40 μg/ml, mAb3-5 5 μg/ml
T1 construct: specificity of mAb428.3C11 to detect native fibulin-3 in tumor tissue; from tissue; host or cells: frozen sections of human primary glioblastoma
T1 sequence (Q12805 18-493): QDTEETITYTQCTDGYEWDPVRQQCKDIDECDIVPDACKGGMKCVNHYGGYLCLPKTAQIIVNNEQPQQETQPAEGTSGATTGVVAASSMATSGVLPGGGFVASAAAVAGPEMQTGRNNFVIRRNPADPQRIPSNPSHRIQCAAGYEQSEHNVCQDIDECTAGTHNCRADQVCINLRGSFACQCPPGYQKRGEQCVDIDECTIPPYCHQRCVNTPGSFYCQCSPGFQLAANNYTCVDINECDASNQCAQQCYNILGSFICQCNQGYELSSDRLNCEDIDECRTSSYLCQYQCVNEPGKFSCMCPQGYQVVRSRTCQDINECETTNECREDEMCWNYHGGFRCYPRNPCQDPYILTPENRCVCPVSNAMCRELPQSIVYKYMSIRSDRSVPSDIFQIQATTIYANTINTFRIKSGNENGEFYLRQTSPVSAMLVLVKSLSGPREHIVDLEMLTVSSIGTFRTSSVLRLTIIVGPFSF
Experimental: Frozen sections of human primary glioblastoma and normal adult human brain were fixed in ethanol/acetate buffer and processed for immunohistochemistry with the following anti-fibulin-3 antibodies: rabbit polyclonal anti-Fib3/911 (10 μg/ml), mouse monoclonal anti-fibulin-3 mAb428.3C11 (40 μg/ml), and a commercial mouse monoclonal antibody against human fibulin-3 (mAb3-5, 5 μg/ml, Santa Cruz Biotechnology). […] Both in-house generated antibodies show stronger staining in the tumor parenchyma compared to the commercial antibody. In all cases, staining is particularly intense around tumor blood vessels. […] Sections were counterstained to identify endothelial markers and cell nuclei by staining with anti-CD31 and DAPI respectively. (Data not shown).
Specific and striking fibrillar staining patterns of fibulin-3 were observed around tumor blood vessels (magnification: 40×). […] Endothelial cells were stained with anti-CD31 and cell nuclei with the dye DAPI. (Data not shown).

[3] = system: GBM34 glioblastoma stem cells; test: Intratumoral injection in subcutaneous GBM34 xenografts; type: in vivo, Athymic mice
Experimental: (§1) Athymic mice received sub-cutaneous (SQ) bilateral implants of GBM34 glioblastoma stem cells (1×10^6 cells/50 μl). Tumors were allowed to grow until they reached a volume of 100 mm^3. Animals (N=5/group) were then injected with mAb428.2 (10 mg/kg) in the left-side tumor and non-immune mouse IgG1 in the right-side tumor, every two days (total: 4 injections). Mice were sacrificed when any of their tumors reached a length >18 mm. […] Growth curves were analyzed by repeated-measures ANOVA and final parameters were compared by paired T-test.
as §1, with “received SQ” for “received sub-cutaneous (SQ)”, “Animals (N=3/group)” for “Animals (N=5/group)”, “with mAb428.3C11 (30” for “with mAb428.2 (10”, “(total: 3” for “(total: 4”, “length >=20” for “length >18”

[4] = target: T2, purified human fibulin-3 (Homo sapiens, UniProt Q12805); test: Western blot and dot-blot detection of fibulin-3; type: binding
T2 construct: purchased ORIGENE
T2 sequence (Q12805 18-493): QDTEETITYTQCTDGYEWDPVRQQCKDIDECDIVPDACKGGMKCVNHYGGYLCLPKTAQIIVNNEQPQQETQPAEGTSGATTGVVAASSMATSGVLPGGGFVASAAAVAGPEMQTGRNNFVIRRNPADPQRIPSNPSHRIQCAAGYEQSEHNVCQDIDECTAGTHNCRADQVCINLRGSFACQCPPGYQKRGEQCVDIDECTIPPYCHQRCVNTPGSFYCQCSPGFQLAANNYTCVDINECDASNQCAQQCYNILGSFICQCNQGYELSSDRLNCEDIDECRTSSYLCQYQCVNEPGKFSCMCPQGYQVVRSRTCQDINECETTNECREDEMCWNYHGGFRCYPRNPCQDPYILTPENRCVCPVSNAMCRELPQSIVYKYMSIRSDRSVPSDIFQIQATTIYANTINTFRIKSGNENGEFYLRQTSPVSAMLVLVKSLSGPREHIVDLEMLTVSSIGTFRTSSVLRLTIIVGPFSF
Experimental: CNSI glioma cells were transfected with fibulin-3 cDNA (fib3-OE cells) or a control plasmid (control cells) and cultured for 24 h in serum-free conditions. Conditioned medium was collected and probed by Western blotting with anti-Fib3/911 (911), anti-Fib3/912 (912), or their respective preimmune sera (antibodies and sera were used at 1/5000 dilution).
Two rabbit polyclonal antibodies were commissioned against the 23-amino acid peptide sequence of fibulin-3 involved in Notch activation. The peptide was minimally modified to facilitate the formation of a disulfide bridge necessary to form a conformational, tri-dimensional epitope (FIG. 4). Antibodies against fibulin-3 (“anti-Fib3/911” and “anti-Fib3/912”) were purified by affinity chromatography, aliquoted, and prepared in phosphate-buffered saline (PBS) solution for all subsequent tests.
Purified human fibulin-3 (200 ng/lane, ORIGENE) was subjected to SDS-PAGE in reducing and non-reducing conditions and probed with affinity-purified mAb428.3C11 (0.4 to 20 μg/ml, diluted in PBS from a 2 mg/ml stock).
Concentrated, serum-free culture medium from HEK293 cells (1 mg/ml total protein) was probed with anti-human IgG secondary antibody (HRP conjugate) to detect the chains of antibody in reducing and non-reducing conditions. C) Concentrated medium from HEK293 cells (1 mg/ml total protein) was directly used to probe purified human fibulin-3 (resolved by SDS-PAGE in non-reducing conditions).

B1: mAb428.2: mouse monoclonal IgG1 kappa antibody against human fibulin-3 peptide SEQ ID NO:2; VH SEQ ID NO: 3, VL SEQ ID NO: 4 (antibody, V domains shown)
VH: QIQLVQSGPELKKPGETVKISCKASGYSFTTYGMSWVKQAPGKGLKWMGWINTYSGVPTYADDFKGRFAFFLETSASTAYLQINNLKNEDTATYFCARWVDYWGQGTTLTVSS
VL: DIKMTQSPSSMYASLGERVTITCKASQDIKSYLSWHQQKPWKSPKTLIYYATSLADGVPSRFSGSGSGQDYSLTISSLESDDTATYYCLQHGKSPYTFGGGTKLEIK
overall survival compared to control IgG1 ([1]; 30 mg/kg IV every day, 8 injections): extended overall survival two-fold; also recorded: significant prolongation of overall survival | tumor growth ([1]; IV 8×30 mg/kg): significant delay in tumor growth | fibulin-3 staining in glioblastoma tissue [2]: detected fibulin-3 in the stroma and capillaries of human GBM | fibulin-3 staining in glioblastoma tissue ([2]; listed as mAb428.3C11): Specific staining of fibulin-3 in tumor tissue; also recorded: detected the same fibrillar pattern observed with a commercial anti-fibulin-3 antibody | tumor volume and weight compared to control IgG1 ([3]; 10 mg/kg intratumoral every two days, 4 injections): reduction in tumor volume and weight | tumor volume and weight compared to control IgG1 ([3]; 30 mg/kg intratumoral every two days, 3 injections): reduction in tumor volume and weight | median volume reduction ([3]; direct intratumoral injection, GBM stem cell xenograft): 45% | detection of fibulin-3 by Western blotting ([4]; SDS-PAGE, reducing and/or non-reducing conditions): high sensitivity of the antibody towards fibulin-3 | detection of native fibulin-3 by dot-blotting ([4]; non-reduced fibulin-3 on nitrocellulose, scFv428.2 medium 1 mg/ml, mAb428.2 1 μg/ml): able to detect native fibulin-3 by dot-blotting
